What all share (format): biochemical, Z. mays
Data set [1] relates to 4-hydroxyphenylpyruvate dioxygenase (HPPD). As to the kind of experiment: OFF rate ratio: release of inhibitor from pre-formed enzyme-inhibitor complex. To be noted: Table 7; tembotrione; combinatorial variants. How it is done:
A quantitative indicator of kOFF can be obtained by observing the time course of an HPPD reaction as inhibitor is released from a pre-formed enzyme-inhibitor complex. HPPD and inhibitor were incubated together at concentrations of 7.2 and 8 μM, respectively. Incubations with the same concentrations of enzyme but no inhibitor were done in parallel. After 1 hr at room temperature, 5 to 10 μl of the enzyme-inhibitor complex was dispensed into the wells of the assay plate. Reactions were started with the addition of 290 to 295 μl of 25 mM Hepes, pH 7, 2 mM ascorbate, 10 μM FeSO4, 100 μM HPP and 50 nM HGD. The reactions were monitored at 320 nm for 12 min. Reaction velocity accelerates as inhibitor is released from the enzyme until a steady state is reached, during which the reaction velocity is constant. The ratio of the steady state rate in mixtures containing herbicidal inhibitor to the initial velocity of mixtures lacking inhibitor is termed the “OFF rate ratio”.
Another parameter to record is the time span required for the reactions with inhibitor to reach the steady state. FIGS. 13C and 13D illustrate the contrasting time span in which maize wild-type HPPD (FIG. 13C) and an improved variant (SEQ ID NO:78) (FIG. 13D) dissociated from mesotrione, as indicated by the accelerating reaction rates. The plateau of absorbance is due to exhaustion of the substrate. With the improved variant, not only was the steady state attained in a shorter time span (80 sec for the variant versus 280 sec for wild type), the velocity attained was twice as high as with wild type, though the enzymes were present at the same concentration (240 nM). This is because a larger fraction of the variant enzyme is free of inhibitor compared to the wild-type enzyme, and the kcat for both is nearly the same, about 220 min^−1.

For data set [2] the test system is unchanged. The data set is described as follows: Insensitivity parameter (ON × OFF) and trait fitness (ON × OFF × kcat/KM or × kcat). On the set-up: key to ON × OFF / Insensitivity, mesotrione, ON × OFF / Insensitivity, tembotrione, ON × OFF / Insensitivity, topramezone, ON × OFF / Insensitivity, sulcotrione, ON × OFF / Insensitivity, isoxaflutole (DKN), ON × OFF: insensitivity = ON rate ratio × OFF rate ratio (surrogate for KD). From the text:
Because substrate and inhibitors bind in the same site, the high concentration of substrate present may competitively trap the inhibitor and prevent it from binding again. To be sure that improvement in ON rates is being taken into account, the ON and OFF rate ratios were multiplied, creating an “insensitivity parameter” that is a surrogate for KD. KD is expressed as kOFF/kON, but because the ON rate ratio is an inverse parameter (the higher the value of ON rate ratio, the lower the value of the represented phenomenon, kON), it is appropriate to multiply ON and OFF rate ratios rather then divide OFF rate ratio by ON rate ratio. Another parameter, which quantifies the combined catalytic and insensitivity properties of the enzyme is kcat/KM×ON rate ratio×OFF rate ratio, and is termed “trait fitness”. This parameter is intended to have a meaning similar to the commonly used expression kcat/KM×Ki.

The test system is the same in data set [3]. As to the kind of experiment: ON rate ratio: HPPD reaction rate with vs without inhibitor in the 70 to 90 second interval. To be noted: Table 7; tembotrione; combinatorial variants. From the text: (§1) Higher KD (reduced affinity or increased insensitivity) can be attained with a numerically smaller ON rate, a larger OFF rate or both. To detect and quantify changes in kON and kOFF, observations of the time course of an HPPD reaction as inhibitor binds to and inactivates the enzyme (kON), or is released from a pre-formed enzyme-inhibitor complex (kOFF) were used, as shown in FIGS. 13A and 13B. In practice, a quantitative indicator of kON was obtained by monitoring the time courses of HPPD reactions containing 60 or 120 nM HPPD and 100 μM HPP in the presence and absence of 4 μM inhibitor (e.g., mesotrione or tembotrione). The ratio of the reaction rate with inhibitor to that without inhibitor during the 70 to 90 second interval of the reaction was termed the “ON rate ratio”. The smaller the actual kON, the more slowly the HPPD reaction decelerates and the higher the value is for the ON rate ratio. FIGS. 13A and 13B illustrate the contrasting reaction velocity in the 70-90 sec interval for maize wild-type HPPD (FIG. 13A) versus an improved variant (SEQ ID NO:78) (FIG. 13B).

For data set [4] the test system is unchanged. As to the kind of experiment: Estimate of kcat from initial rate at saturating hydroxyphenylpyruvate without inhibitor (ON rate ratio assay).
Text: as §1
Thirty nine variants were desensitized to tembotrione compared with the backbone enzyme, Round 7, variant 9070 (SEQ ID NO:2) and all were desensitized compared with maize wild type HPPD (SEQ ID NO:1). Because the assay for ON rate ratio includes an initial rate measurement at saturating hydroxyphenylpyruvate without inhibitor and with known enzyme concentration, an estimate of kcat was available. Taking into account kcat and insensitivity parameters, 30 variants were selected for measurement of substrate saturation kinetic parameters and re-evaluation of insensitivity to tembotrione. The kinetic and insensitivity parameters were determined as described in Example 1, and were multiplied to generate the “trait fitness” parameter. The complete list of variants, i.e., of selected single substitutions in SEQ ID NO:2, analyzed with multiple inhibitors and the results obtained are shown in Table 6. The same set of 30 variants were evaluated for insensitivity to mesotrione, sulcotrione, isoxaflutole (its active diketonitrile form, abbreviated DKN in Table 6) and topramezone.

Where [5] appears, read: Table 7, tembotrione, combinatorial variants.
The mark [6] stands for this setting: Table 7, combinatorial variants.

For orientation: kcat means the number of substrate molecules converted per active site and unit of time at saturation.

B1: P056028-A-11 (protein)
chain: MGPTPTATAAGAAVAAASAAEQAAFRLVGHRNFVRFNPRSDRFQTLAFHHVELWCADAASAAGRFSFALGVPLAARSDLSTGNSAHASLLLRSGSLSLLFTAPYAHGADAATAALPSFSAAAARRFAADHGLAVRAVALRVADAEDAFRASVAAGARPAFGPVDLGRGFRLAEVELYGDVVLRYVSYPDGAAGEPFLPGFEGVASPGAADYGLSRFDHIVGNVPELAPAAAYMAGFTGFHEFAEFTTEDVGTTESGLNSMALANNSENVLLPLNEPVHGTKRRSQIQTFLDHHGGPGVQHIALASDDVLRTLREMRARSAMGGFEFLPPPLSDYYDGVRRCAGDVLTEAQINECQELGVMVDRDDEGVLLQIFTKPVGDRPTFFLEIIQRIGCMEKDEKGQEYQKGGCGGFGKGNFSQLFKSIEDYEKSLEAKQAAAAATAQGS
modifications: Zea mays variant form created by artificial means.
With B1, in data set [1], the OFF rate ratio amounted to 0.366. The “ON × OFF” value in data set [2] (Megatable 3, shuffled variants) is listed as 0.258; in data set [2] (setting [5]), 0.258. The “ON × OFF × kcat” value was 2.21 in data set [2] (Megatable 3, shuffled variants) and 2.21 in data set [2] (setting [5]). Further, the ON rate ratio in data set [3] came to 0.706. Moreover, the kcat in data set [4] (Megatable 3, shuffled variants) is 0.143 s⁻¹; in data set [4] (setting [6]), 0.143 s⁻¹.

B2: P056028-A-04 (protein)
chain: MGPTPTATAAGAAVAAASAAEQAAFRLVGHRNFVRFNPRSDRFQTLAFHHVELWCADAASAAGRFSFALGVPLAARSDLSTGNSAHASLLLRSGSLSLLFTAPYAHGADAATAALPSFSAAAARRFAADHGLAVRAVALRVADAEDAFRASVAAGARPAFGPVDLGRGFRLAEVELYGDVVLRYVSYPDGAAGEPFLPGFEGVASPGAADYGLSRFDHIVGNVPELAPAAAYMAGFTGFHEFAEFTTEDVGTTESGLNSMALANNSENVLLPLNEPVHGTKRRSQIQTFLDHHGGPGVQHIALASDDVLRTLREMRARSAMGGFEFLPPPLSDYYDGVRRCAGDVLTEAQINECQRLGVMVDRDDEGVLLQIFTKPVGDRPTFFIEIIQRIGCMEKDEKGQEYQKGGCGGFGKGNFGQLFKSIEDYEKSLEAKQAAAAATAQGS
modifications: Zea mays variant form created by artificial means.
On to B2, for which, in data set [1], the OFF rate ratio stood at 0.133. Also, the “ON × OFF” value in data set [2] (Megatable 3, shuffled variants) was 0.096; in data set [2] (setting [5]), 0.096. In addition, the “ON × OFF × kcat” value in data set [2] (Megatable 3, shuffled variants) was determined as 1.06; in data set [2] (setting [5]) it was 1.06. Besides, the ON rate ratio in data set [3] is 0.724. Further, the kcat in data set [4] (Megatable 3, shuffled variants) is 0.185 s⁻¹; in data set [4] (setting [6]) it was 0.185 s⁻¹.

B3: P056028-A-07 (protein)
chain: MGPTPTATAAGAAVAAASAAEQAAFRLVGHRNFVRFNPRSDRFQTLAFHHVELWCADAASAAGRFSFALGVPLAARSDLSTGNSAHASLLLRSGSLSLLFTAPYAHGADAATAALPSFSAAAARRFAADHGLAVRAVALRVADAEDAFRASVAAGARPAFGPVDLGRGFRLAEVELYGDVVLRYVSYPDGGAGEPFLPGFEGVASQGAADLGLSRFDHIVGNVPELAPAAAYMAGFTGFHEFAEFTTEDVGTTESGLNSMALANNSENVLLPLNEPVHGTKRRSQIQTFLDHHGGPGVQHIALASDDVLRTLREMRARSAMGGFEFLPPPLSDYYDGVRRCAGDVLTEAQINECQELGVMVDRDDEGVLLQIFTKPVGDRPTFFLEIIQRIGCMEKDEKGQEYQKGGCGGFGKGNFGQLFKSIEDYEKSLEAKQAAAAATAQGS
modifications: Zea mays variant form created by artificial means.
For the molecule B3, the OFF rate ratio in data set [1] amounted to 0.329. Besides, the “ON × OFF” value is 0.239 in data set [2] (Megatable 3, shuffled variants) and 0.239 in data set [2] (setting [5]). Also, the “ON × OFF × kcat” value is 4.65 in data set [2] (Megatable 3, shuffled variants) and 4.65 in data set [2] (setting [5]). The ON rate ratio in data set [3] came to 0.726. In addition, the kcat is 0.325 s⁻¹ in data set [4] (Megatable 3, shuffled variants) and 0.325 s⁻¹ in data set [4] (setting [6]).

B4: P056028-A-09 (protein)
chain: MGPTPTATAAGAAVAAASAAEQAAFRLVGHRNFVRFNPRSDRFQTLAFHHVELWCADAASAAGRFSFALGVPLAARSDLSTGNSAHASLLLRSGSLSLLFTAPYAHGADAATAALPSFSAAAARRFAADHGLAVRAVALRVADAEDAFRASVAAGARKAFGPVDLGRGFRLAEVELYGDVVLRYVSYPDGAAGEPFLPGFEGVASPGAADLGLNRFDHIVGNVPELAPAAAYMAGFTGFHEFAEFTTEDVGTTESGLNSMALANNSENVLLPLNEPVHGTKRRSQIQTFLDHHGGPGVQHIALASDDVLRTLREMRARSAMGGFEFLPPPLSDYYDGVRRCAGDVLTEAQINECQELGVMVDRDDEGVLLQIFTKPVGDRPTFFLEIIQRIGCMEKDEKGQEYQKGGCGGFGKGNFGQLFKSIEDYEKSLEAKQAAAAATAQGS
modifications: Zea mays variant form created by artificial means.
For the molecule B4, the OFF rate ratio in data set [1] is listed as 0.339. Also, the “ON × OFF” value in data set [2] (Megatable 3, shuffled variants) stood at 0.235; in data set [2] (setting [5]) it was 0.235. For the same molecule, the “ON × OFF × kcat” value is on record as 3.26 in data set [2] (Megatable 3, shuffled variants) and 3.26 in data set [2] (setting [5]). For the same molecule, the ON rate ratio in data set [3] is given as 0.692. The kcat is 0.232 s⁻¹ in data set [4] (Megatable 3, shuffled variants) and 0.232 s⁻¹ in data set [4] (setting [6]).

B5: P056028-A-05 (protein)
chain: MGPTPTATAAGAAVAAASAAEQAAFRLVGHRNFVRFNPRSDRFQTLAFHHVELWCADAASAAGRFSFALGVPLAARSDLSTGNSAHASLLLRSGSLSLLFTAPYAHGADAATAALPSFSAAAARRFAADHGLAVRAVALRVADAEDAFRASVAAGARPAFGPVDLGRGFRLAEVELYGDVVLRYVSYPDGAAGEPFLPGFEGVASQGAADYGLSRFDHIVGNVPELAPAAAYMAGFTGFHEFAEFTTEDVGTTESGLNSMALANNSENVLLPLNEPVHGTKRRSQIQTFLDHHGGPGVQHIALASDDVLRTLREMRARSAMGGFEFLPPPLSDYYDGVRKCAGDVLTEAQINECQELGVMVDRDDEGVLLQIFTKPVGDRPTFFLEIIQRIGCMEKDEKGQEYQKGGCGGFGKGNFGQLFKSIEDYEKSLEAKQAAAAATAQGS
modifications: Zea mays variant form created by artificial means.
Regarding B5, in data set [1], the OFF rate ratio amounted to 0.280. The “ON × OFF” value in data set [2] (Megatable 3, shuffled variants) is reported as 0.198; in data set [2] (setting [5]) it was 0.198. The “ON × OFF × kcat” value came out at 3.50 in data set [2] (Megatable 3, shuffled variants) and 3.50 in data set [2] (setting [5]). Further, the ON rate ratio in data set [3] worked out at 0.707. The kcat is 0.295 s⁻¹ in data set [4] (Megatable 3, shuffled variants) and 0.295 s⁻¹ in data set [4] (setting [6]).

Source of the values: patent publication US11015206B2, “Compositions and methods comprising sequences having hydroxyphenylpyruvate dioxygenase (HPPD) activity” (PIONEER HI-BRED INTERNATIONAL, INC., priority 2014, dated 2021).
